Literature values in article PMC6530603.

Target: VP30 CTD (Zaire ebolavirus) (UniProt Q77DJ5)

## Nucleoprotein NP C-terminal region peptide (from UniProt P18272)
  Kd: 5.7 µM
